We go through two substances from PMC10721955.

In the assay the target is Flag-tagged mouse MRTF-A (MAL fl), in vitro translated. Description: in vitro protein binding assay (IP/IB of in vitro translated tagged proteins), quantified. The conditions noted are these: IP: HA-gel (HA-CRP2), three independent experiments, parent: 100, read off a plot.

For the substance “HA-tagged human CRP2 (cysteine-and glycine-rich protein 2), in vitro translated (from UniProt Q16527) 154E/L; 156T/D; 157T/D”, the percent of parent was determined as 21%.
“HA-tagged human CRP2 (cysteine-and glycine-rich protein 2), in vitro translated (from UniProt Q16527) 153L/D; 158L/D”: the percent of parent amounted to 22%.
